Experimental data published in the Human Domainome abundance scans (Beltran et al. 2025).

B1: Segment polarity protein dishevelled homolog DVL-3, residues 2 to 81; numbered along this chain, Q92997 (parent)
chain: GETKIIYHLDGQETPYLVKLPLPAERVTLADFKGVLQRPSYKFFFKSMDDDFGVVKEEISDDNAKLPCFNGRVVSWLVSA

Variants of: B1
Test: abundance fitness (aPCA) (normalised: wild type 0, dead -1); higher = more abundant; growth selection in yeast, the domain comes from the species named
Conditions: Homo sapiens

Abundance fitness, by site and new letter:
W76: L -0.842, G -0.648, P -0.625, K -0.709, C -0.737, V -0.565, H -1.2, T -0.579, N -0.661, Y -0.456, Q -0.943, I -1.4, E -0.891, R -0.72, F -0.482, M -0.678
G71: H -0.281, N -0.351, M -1.4, W -0.524, R -0.895, L -0.538, V -0.888, I -0.249, Y -0.64, C -0.957, D -0.482, Q -0.763, S -0.512, A -0.782, T -0.919, F -0.725
F69: R -0.272, T -0.352, L -0.214, V -0.078, G -0.605, M -0.201, W -0.191, N -0.361, E -0.108, S -0.163, P -0.918, C -0.148, D -0.352, Y 0.061, H 0.001, K -0.146, A -0.613, Q -0.423
P67: M -0.603, H -0.874, Y -0.602, Q -0.676, S -0.646, C -0.948, L -0.94, K -1.02, R -0.544, D -0.623, I -1.04, E -0.432, W -1.01, G -0.659, F -0.657, V -0.728, A -0.841
S75: F -0.793, R -0.606, T -0.519, N -0.899, K -0.967, M -0.726, C 0.099, I -0.459, Y -0.669, L -0.463, G -0.221, W -0.603, E -0.782, V -0.161, P -0.59, D -0.723, H -0.6
N70: M -0.374, F -0.449, C -0.467, R -0.249, Q -0.341, W -0.634, H -0.165, D 0.009, L -0.757, K 0.002, P -0.628, T -0.466, V -0.593, Y -0.915, A -0.602, S -0.568, E -0.001
A64: P -0.663, Y -0.894, G -0.647, F -0.786, S -0.376, Q -0.001, M -0.316, V -0.506, N -0.523, R -0.359, I -0.414, W -0.672, L -0.904
A80: K 0.212, Q -0.029, I -0.004, Y -0.405, M -0.101, N 0.11, V -0.105, L -0.239, R -0.164, H -0.089, F -0.098, D 0.267, G 0.014, S 0.088, T 0.185, C -0.015, E 0.191
L77: A -1.11, V -0.064, S -0.831, D -0.471, P -0.929, H -0.536, M -0.395, E -0.915, I -0.358, N -0.751, K -0.261, F -0.855, R -0.903, G -0.572, Y -0.911, C -0.29, T -0.243
L66: P -0.588, K -0.644, I -0.461, S -0.747, M -0.664, D -1.44, V -0.864, E -0.493, H -0.475, N -0.825, G -0.789, C -0.923, R -0.706, A -0.822, F -0.461, Y -0.508, T -0.772
R72: I 0.269, W 0.139, G -0.416, H 0.183, C 0.222, N 0.029, K 0.102, F 0.219, M 0.2, T 0.318, Q 0.243, S 0.149, P -1.04, D -0.272, L 0.216, A 0.163
V73: E -0.786, D -0.501, A -0.511, I 0.147, H -0.573, Y -0.909, K -1.01, Q -0.477, S -0.618, L -0.56, R -0.592, C -0.347, M -0.767, G -0.681, N -0.569, W -0.589, F -0.684
K65: C -0.183, Y 0.093, P -0.135, S -0.195, H 0.091, M -0.264, E -0.821, D -0.914, V 0.072, N -0.139, F -0.284, G -0.47, Q 0.127, L -0.005, R -0.032, I 0.263
S79: W -0.71, Y -0.864, F -0.504, P 0.16, C -0.228, K -0.204, I -0.652, E 0.002, V -0.682, R -0.31, L -0.67, T -0.179, M -0.556, A -0.206, G -0.287, Q -0.248, D 0.079, H -0.466
C68: W -0.793, D -0.624, T 0.103, Q -0.189, A -0.003, P -0.759, E -0.645, G -0.699, H 0.143, S 0.081, L 0.061, M -0.22, R -0.875, N -0.117, F -0.112, I -0.049
V74: W -0.243, E 0.195, L -0.427, R -0.446, Q -0.777, Y 0.236, K -0.953, N -0.511, D -0.593, P -0.981, M -0.198, G -0.716, H -0.249, A -0.585, C -0.658, F -0.066
V78: E -0.008, S -0.587, R -0.322, Y 0.102, G -0.558, C -0.131, L -0.398, T -0.127, Q -0.486, N -0.585, D -0.708, I -0.139, K -0.105, M -0.19, W -0.228, F -0.162, A -0.836
